# Test results published in patent US20080286277A1 (GLYCART BIOTECHNOLOGY, published 2008).
# Positions count from the first letter of the chain named.
# B1: humanized ICR62 antibody I-HHD/I-KC6 (antibody, human IgG1, V domains shown)
# VH: QVQLVQSGAEVKKPGSSVKVSCKASGFTFTDYKIHWVRQAPGQGLEWMGYFNPNSGYSTYAQKFQGRVTITADKSTSTAYMELSSLRSEDTAVYYCARLSPGGYYVMDAWGQGTTVTVSS
# VL: DIQMTQSPSSLSASVGDRVTITCRASQGINNYLNWYQQKPGKAPKRLIYNTSNLQTGVPSRFSGSGSGTEFTLTISSLQPEDFATYYCLQHNSFPTFGQGTKLEIKR
# B2: humanized ICR62 antibody I-HHD/I-KC8 (antibody, human IgG1, V domains shown)
# VH: B1 VH
# VL: B1 VL with S52N, T56S
# B3: humanized ICR62 antibody I-HHD/I-KC4 (antibody, human IgG1, V domains shown)
# VH: B1 VH
# VL: B1 VL with N50T, S52N
# B4: humanized ICR62 antibody I-HHD/I-KC7 (antibody, human IgG1, V domains shown)
# VH: B1 VH
# VL: B1 VL with S52N, N53S
# B5: humanized ICR62 antibody I-HHD/I-KC1 (antibody, human IgG1, V domains shown)
# VH: B1 VH
# VL: B1 VL with N30R, S52N
# B6: humanized ICR62 antibody I-HHD/I-KC2 (antibody, human IgG1, V domains shown)
# VH: B1 VH
# VL: B1 VL with Y32W, S52N
# B7: humanized ICR62 antibody I-HHD/I-KC9 (antibody, human IgG1, V domains shown)
# VH: B1 VH
# VL: B1 VL with S52N, F94Y
# B8: humanized ICR62 antibody I-HHD/I-KC5 (antibody, human IgG1, V domains shown)
# VH: B1 VH
# VL: B1 VL with T51A, S52N
# B9: humanized ICR62 antibody I-HHD-6/I-KC (antibody, human IgG1, V domains shown)
# VH: B1 VH with P53A
# VL: B1 VL with S52N
# B10: humanized ICR62 antibody I-HHD-2/I-KC (antibody, human IgG1, V domains shown)
# VH: B1 VH with T28S
# VL: B1 VL with S52N
# B11: humanized ICR62 antibody I-HHD-11/I-KC (antibody, human IgG1, V domains shown)
# VH: B1 VH with A109V
# VL: B1 VL with S52N
# B12: humanized ICR62 antibody I-HHD-1/I-KC (antibody, human IgG1, V domains shown)
# VH: B1 VH with F27G
# VL: B1 VL with S52N
# B13: humanized ICR62 antibody I-HHD-7/I-KC (antibody, human IgG1, V domains shown)
# VH: B1 VH with N54I
# VL: B1 VL with S52N
# B14: humanized ICR62 antibody I-HHD-9/I-KC (antibody, human IgG1, V domains shown)
# VH: B1 VH with S58A
# VL: B1 VL with S52N
# B15: humanized ICR62 antibody I-HHD-4/I-KC (antibody, human IgG1, V domains shown)
# VH: B1 VH with D31E
# VL: B1 VL with S52N
# B16: chimeric rat-human ICR62 antibody (antibody, human IgG1, V domains shown)
# VH: QVNLLQSGAALVKPGASVKLSCKGSGFTFTDYKIHWVKQSHGKSLEWIGYFNPNSGYSTYNEKFKSKATLTADKSTDTAYMELTSLTSEDSATYYCTRLSPGGYYVMDAWGQGASVTVSS
# VL: DIQMTQSPSFLSASVGDRVTINCKASQNINNYLNWYQQKLGEAPKRLIYNTNNLQTGIPSRFSGSGSGTDYTLTISSLQPEDFATYFCLQHNSFPTFGAGTKLELKR
# notes: also called ch-ICR62; chimeric ICR62
# B17: humanized ICR62 antibody I-HLA2/I-KC (antibody, human IgG1, V domains shown)
# VH: QVQLVQSGAEVKKPGASVKVSCKASGFTFTDYYMHWVRQAPGQGLEWMGWINPNSGYSTYNEKFQGQVTISADKSISTAYLQWSSLKASDTAMYYCARLSPGGYYVMDAWGQGTTVTVSS
# VL: B1 VL with S52N
# B18: humanized ICR62 antibody I-HLA4/I-KC (antibody, human IgG1, V domains shown)
# VH: B17 VH with F27Y
# VL: B1 VL with S52N
# B19: humanized ICR62 antibody I-HHG/I-KC (antibody, human IgG1, V domains shown)
# VH: B1 VH with A24G, S58A
# VL: B1 VL with S52N
# B20: humanized ICR62 antibody I-HHB/I-KC (not glycoengineered) (antibody, V domains shown)
# VH: B1 VH with A24G
# VL: B1 VL with S52N
# notes: also called I-HHB/KC
# B21: humanized ICR62 antibody I-HHD-10/I-KC (antibody, human IgG1, V domains shown)
# VH: B1 VH with V106G
# VL: B1 VL with S52N
# B22: humanized ICR62 antibody I-HLA5/I-KC (antibody, human IgG1, V domains shown)
# VH: B17 VH with V2M, A9P, A16T, N61S, E62P, K63S
# VL: B1 VL with S52N
# B23: humanized ICR62 antibody I-HHF/I-KC (antibody, human IgG1, V domains shown)
# VH: B1 VH with A24G, T59N
# VL: B1 VL with S52N
# B24: humanized ICR62 antibody I-HLA7/I-KC (antibody, human IgG1, V domains shown)
# VH: B17 VH with V2M, A9P, A16T, Y33K, M34I, P41R, G44R, M48I
# VL: B1 VL with S52N
# B25: humanized ICR62 antibody I-HLA1/I-KC (antibody, human IgG1, V domains shown)
# VH: B17 VH with N61S, E62P, K63S
# VL: B1 VL with S52N
# B26: humanized ICR62 antibody I-HLA8/I-KC (antibody, human IgG1, V domains shown)
# VH: B1 VH with V2M, A9P, S16T
# VL: B1 VL with S52N
# B27: humanized ICR62 antibody I-HLA/I-KA (antibody, human IgG1, V domains shown)
# VH: B1 VH with S16A, K33Y, I34M, Y50W, F51I, I70M, K74T, T76I, S85R, E89D
# VL: B1 VL with S52N, F71Y
# B28: humanized ICR62 antibody I-HLA/I-KB (antibody, human IgG1, V domains shown)
# VH: B1 VH with S16A, K33Y, I34M, Y50W, F51I, I70M, K74T, T76I, S85R, E89D
# VL: B1 VL with R24K, G28N, S52N, F71Y
# B29: humanized ICR62 antibody I-HHC/I-KB (antibody, human IgG1, V domains shown)
# VH: B1 VH with A24G, A61N, Q62E, Q65K, G66S
# VL: B1 VL with R24K, G28N, S52N, F71Y
# notes: I-HHC was also paired with I-KA and the chimeric light chain
# B30: humanized ICR62 antibody I-HLA9/I-KC (antibody, human IgG1, V domains shown)
# VH: B1 VH with Q1E, S16E, V18L, V20I, A24G, F27Y, T28S
# VL: B1 VL with S52N
# B31: humanized ICR62 antibody I-HLA6/I-KC (antibody, human IgG1, V domains shown)
# VH: B17 VH with V2M, A9P, A16T
# VL: B1 VL with S52N
# B32: humanized ICR62 antibody I-HHD-8/I-KC (antibody, human IgG1, V domains shown)
# VH: B1 VH with Y57T
# VL: B1 VL with S52N
# B33: humanized ICR62 antibody I-HLA3/I-KC (antibody, human IgG1, V domains shown)
# VH: B17 VH with F27Y, N61S, E62P, K63S
# VL: B1 VL with S52N
# B34: humanized ICR62 antibody I-HHD/I-KC3 (antibody, human IgG1, V domains shown)
# VH: B1 VH
# VL: B1 VL with N34G, S52N
# Molecular target: T1, human epidermal growth factor receptor (EGFR) (human, UniProt P00533 25-1210)
# T1 construct: whole, on cells; also called HER-1; ErbB1
# Experiment: flow cytometry on A431 cells, light chain paired with I-HHD
row,Binder,binding result
1,B1,binds
2,B2,binds
3,B3,binds
4,B4,binds
5,B5,binds
6,B6,binds
7,B7,binds
8,B8,binds

# Molecular target: T1, human epidermal growth factor receptor …
# Experiment: flow cytometry on A431 cells, heavy chain paired with I-KC
row,Binder,binding result
1,B9,binds
2,B10,binds
3,B11,binds
4,B12,binds
5,B13,binds
6,B14,binds
7,B15,binds

# Molecular target: T1, human epidermal growth factor receptor …
# Experiment: flow cytometry on A431 cells
# Method: The purified, monomeric humanized antibody variants were tested for binding to human epidermal growth factor receptor (EGFR, also referred to in the literature as HER-1 or ErbB1) on the A431 human epidermal cell line, using a flow cytometry-based assay. 200,000 cells (e.g., from human A431 cell line) in 180 μl FACS buffer (PBS containing 2% FCS and 5 mM EDTA) were transferred to 5 ml polystyrene tubes and 20 μl 10 fold concentrated anti-EGFR antibody (primary antibody) samples (1-5000 ng/ml final concentration) or PBS only were added. After gently mixing the samples, the tubes were incubated at 4° C. for 30 min in the dark. Subsequently, samples were washed twice with FACS buffer and pelleted at 300×g for 3 min. Supernatant was aspirated off and cells were taken up in 50 μl FACS buffer and 2 μl secondary antibody (anti-Fc-specific F(ab′)2-FITC fragments (Jackson Immuno Research Laboratories, USA)) was added and the tubes were incubated at 4° C. for 30 min. Samples were washed twice with FACS buffer and taken up in 500 μl of FACS buffer for analysis by Flow Cytometry. Binding was determined by plotting the geometric mean fluorescence against the antibody concentrations.
Binder,EC50,EC50 fold lower relative to I-HLA4,"EC50 fold increase relative to ch-ICR62, I-HLA1 and I-HLA2",binding result,EC50 fold increase relative to I-HHD parent construct,EC50 fold decrease relative to ch-ICR62,EC50 fold increase relative to I-KC (paired with I-HHD)
B16,~0.3 µg/mL,2 fold,–,–,–,–,–
B17,~0.3 µg/mL,–,–,–,–,–,–
B18,–,–,2 fold,–,–,–,–
B19,–,–,–,binds,–,–,–
B20,–,–,–,binds,–,–,–
B21,–,–,–,–,10 fold,–,–
B22,–,–,2 fold,–,–,–,–
B23,–,–,–,binds,–,–,–
B24,–,–,–,binds,–,–,–
B25,~0.3 µg/mL,–,–,–,–,–,–
B26,–,–,–,–,–,2 fold,–
B27,–,–,–,binds,–,–,–
B28,–,–,–,binds,–,–,–
B29,–,–,–,binds,–,–,–
B30,–,–,–,binds,–,–,–
B31,–,–,2 fold,–,–,–,–
B32,–,–,–,–,10 fold,–,–
B33,–,–,2 fold,–,–,–,–
B34,–,–,–,–,–,–,10 fold
